Test results as given in US20180044393A1 (INSERM INSTITUT NATIONAL DE LA SANT ET DE LA RECHERCHE M …, published 2018).
Positions of bridges follow the written chain, without caps; N, C: chain ends. No end group written: not given here. *: point of attachment. 125I = [125I]*

What was measured:
Assay in all cases: 125I-OxA binding on CHO-S cells expressing the OX1R mutant
OX1R L320A = molecular target: T1, OX1R L320A (human, UniProt O43613 1-425)
T1 construct: site-directed mutant (TM6) stably expressed in CHO-S cells; not shown: YFP from vector pEYFP-N2 fused at the C-terminus
T1 chain: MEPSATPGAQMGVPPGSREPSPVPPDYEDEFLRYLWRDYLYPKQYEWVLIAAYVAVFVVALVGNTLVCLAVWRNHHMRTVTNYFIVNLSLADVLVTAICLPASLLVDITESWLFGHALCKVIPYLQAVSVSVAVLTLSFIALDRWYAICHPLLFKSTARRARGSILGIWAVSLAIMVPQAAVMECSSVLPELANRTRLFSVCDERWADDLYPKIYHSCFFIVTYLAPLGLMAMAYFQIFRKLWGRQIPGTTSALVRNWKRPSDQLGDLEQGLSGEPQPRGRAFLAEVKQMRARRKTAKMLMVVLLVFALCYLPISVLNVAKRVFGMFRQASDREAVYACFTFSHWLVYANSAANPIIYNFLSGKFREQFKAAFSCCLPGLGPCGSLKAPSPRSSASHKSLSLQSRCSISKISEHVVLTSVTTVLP
Method: (§1) CHO—S cells expressing recombinant native or mutated OX1R were grown as previously described (El Firar et al., 2009) and maintained at 37° C. in a humidified 5% CO₂/air incubator. ¹²⁵I-orexia-A (74 TBq/mmol) was prepared as previously described (El Firar et al., 2009). […] Free peptides were removed by 2 cell washing cycles with PBS. […] Data were analyzed using the GraphPad software (http://www.graphpad.com).
(§2) All residues of OX1R fulfilling this condition were mutated to alanine by site-directed mutagenesis (Table II).

OX1R Y124A = molecular target: T2, OX1R Y124A (human, UniProt O43613 1-425)
T2 construct: site-directed mutant (TM3) stably expressed in CHO-S cells; not shown: YFP from vector pEYFP-N2 fused at the C-terminus
T2 chain: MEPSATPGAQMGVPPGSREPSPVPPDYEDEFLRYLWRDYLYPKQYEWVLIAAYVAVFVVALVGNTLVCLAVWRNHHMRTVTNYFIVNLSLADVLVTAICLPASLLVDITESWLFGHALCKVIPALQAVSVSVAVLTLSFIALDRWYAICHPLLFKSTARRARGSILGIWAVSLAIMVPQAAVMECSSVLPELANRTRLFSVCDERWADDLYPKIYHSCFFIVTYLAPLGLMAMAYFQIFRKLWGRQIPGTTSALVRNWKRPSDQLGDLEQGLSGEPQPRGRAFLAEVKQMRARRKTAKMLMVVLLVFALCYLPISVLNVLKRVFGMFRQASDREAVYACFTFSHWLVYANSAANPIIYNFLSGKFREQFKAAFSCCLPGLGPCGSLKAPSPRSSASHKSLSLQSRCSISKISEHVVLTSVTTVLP
Method: as §1, §2

OX1R F340A = molecular target: T3, OX1R F340A (human, UniProt O43613 1-425)
T3 construct: site-directed mutant (TM7) stably expressed in CHO-S cells; not shown: YFP from vector pEYFP-N2 fused at the C-terminus
T3 chain: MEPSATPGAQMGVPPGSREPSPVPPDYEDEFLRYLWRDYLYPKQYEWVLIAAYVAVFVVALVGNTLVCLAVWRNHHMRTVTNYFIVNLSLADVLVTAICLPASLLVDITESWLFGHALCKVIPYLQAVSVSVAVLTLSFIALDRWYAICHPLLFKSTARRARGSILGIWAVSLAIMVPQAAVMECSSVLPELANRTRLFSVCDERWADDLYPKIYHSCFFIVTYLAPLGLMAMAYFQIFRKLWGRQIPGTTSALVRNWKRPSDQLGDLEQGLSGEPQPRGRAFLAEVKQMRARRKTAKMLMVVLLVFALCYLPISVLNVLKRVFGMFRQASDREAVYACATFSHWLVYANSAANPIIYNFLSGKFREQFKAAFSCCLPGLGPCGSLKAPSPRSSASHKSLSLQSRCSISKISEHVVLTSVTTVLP
Method: as §1, §2

OX1R V319A = molecular target: T4, OX1R V319A (human, UniProt O43613 1-425)
T4 construct: site-directed mutant (TM6) stably expressed in CHO-S cells; not shown: YFP from vector pEYFP-N2 fused at the C-terminus
T4 chain: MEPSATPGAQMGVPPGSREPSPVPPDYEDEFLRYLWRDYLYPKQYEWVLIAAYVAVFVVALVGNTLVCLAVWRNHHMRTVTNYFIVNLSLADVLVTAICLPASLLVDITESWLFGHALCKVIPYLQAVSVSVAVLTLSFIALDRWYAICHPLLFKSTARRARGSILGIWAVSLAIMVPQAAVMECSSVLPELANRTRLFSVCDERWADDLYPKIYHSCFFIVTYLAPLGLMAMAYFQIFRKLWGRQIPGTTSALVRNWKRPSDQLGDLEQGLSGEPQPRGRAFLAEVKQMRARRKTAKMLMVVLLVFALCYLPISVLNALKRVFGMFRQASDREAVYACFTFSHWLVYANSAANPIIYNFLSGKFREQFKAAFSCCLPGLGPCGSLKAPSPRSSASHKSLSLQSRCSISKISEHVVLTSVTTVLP
Method: as §1, §2

OX1R F220A = molecular target: T5, OX1R F220A (human, UniProt O43613 1-425)
T5 construct: site-directed mutant (TM5) stably expressed in CHO-S cells; not shown: YFP from vector pEYFP-N2 fused at the C-terminus
T5 chain: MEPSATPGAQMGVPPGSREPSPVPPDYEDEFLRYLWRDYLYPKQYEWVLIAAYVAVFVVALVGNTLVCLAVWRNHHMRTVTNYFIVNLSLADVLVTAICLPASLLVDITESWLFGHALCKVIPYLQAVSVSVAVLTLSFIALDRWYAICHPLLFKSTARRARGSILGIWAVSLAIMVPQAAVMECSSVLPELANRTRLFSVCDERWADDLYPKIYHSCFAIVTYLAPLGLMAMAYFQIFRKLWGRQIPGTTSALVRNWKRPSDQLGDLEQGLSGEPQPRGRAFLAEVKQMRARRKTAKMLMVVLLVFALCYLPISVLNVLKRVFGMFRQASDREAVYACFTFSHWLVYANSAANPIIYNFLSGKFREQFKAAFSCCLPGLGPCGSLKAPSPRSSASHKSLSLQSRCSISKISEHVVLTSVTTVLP
Method: as §1, §2

Measured: binding result

QPLPDCCRQKTCSCRLY(125I)ELLHGAGNHAAGILTL (peptide, UniProt O43612 34-66, looked up, disulfide 6-12, 7-14; not fully specified (residue 1, C-terminus), mature; also called OxA) [125I-orexin-A]
binds: all assays above
